In PMC5723419:

Molecular target: Aminopeptidase P from Pseudomonas aeruginosa (Pa-PepP) (Pseudomonas aeruginosa PA14)
Experiment: crystal structure

stoichiometry N: 4
Substance: Aminopeptidase P from Pseudomonas aeruginosa (Pa-PepP) (enzyme)
